# B1: Human S100P protein (recombinant, Ca^2+-loaded) (natural protein)
# chain: MTELETAMGMIIDVFSRYSGSEGSTQTLTKGELKVLMEKELPGFLQSGKDKDAVDKLLKDLDANGDAQVDFSEFIVFVAAITSACHKYFEKAGLK
# notes: S100P protein, human, recombinant; probably the whole 95-residue protein (surmise); also called wild-type S100P; WT S100P; source: E. coli, prepared as previously described [28]
# Key:
# Test in all cases: SPR; cytokine immobilised on ProteOn GLH sensor chip by amine coupling (9,000-14,000 RU); S100P (wild type or mutant) as analyte, 62 nM-16 µM; 25 °C; 10 mM HEPES, 150 mM NaCl, 1 mM CaCl2, 0.05% TWEEN 20, pH 7.4; heterogeneous ligand model (two ligand populations), one-site model for IL-13; values averaged over analyte concentrations (n = 3-5)
# Details in all cases: both partners purified
# Thrombopoietin = target: T1, Thrombopoietin (human, UniProt P40225 22-353)
# T1 construct: Thrombopoietin, human, UniProt P40225; see the manufacturer's catalogue number; also called THPO; source: bought: SCI-Store (Russia) (source CHO)
# T1 sequence (P40225 22-353): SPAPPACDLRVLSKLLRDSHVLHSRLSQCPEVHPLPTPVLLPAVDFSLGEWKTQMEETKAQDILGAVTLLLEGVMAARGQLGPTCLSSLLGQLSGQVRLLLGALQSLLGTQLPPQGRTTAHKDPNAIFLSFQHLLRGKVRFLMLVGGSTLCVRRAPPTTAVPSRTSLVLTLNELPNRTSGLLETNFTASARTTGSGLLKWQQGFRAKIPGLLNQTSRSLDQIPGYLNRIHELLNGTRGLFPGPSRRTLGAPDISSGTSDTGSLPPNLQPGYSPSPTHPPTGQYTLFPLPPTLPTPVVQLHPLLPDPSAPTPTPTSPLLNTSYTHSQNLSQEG
# Interleukin-35 = target: T2, Interleukin-35 (human, UniProt P29459 23-219; Q14213 21-229)
# T2 construct: the chain used for the SCOP family assignment; also called IL-35; source: bought: PeproTech (source HEK293)
# T2 sequence (looked up) 1: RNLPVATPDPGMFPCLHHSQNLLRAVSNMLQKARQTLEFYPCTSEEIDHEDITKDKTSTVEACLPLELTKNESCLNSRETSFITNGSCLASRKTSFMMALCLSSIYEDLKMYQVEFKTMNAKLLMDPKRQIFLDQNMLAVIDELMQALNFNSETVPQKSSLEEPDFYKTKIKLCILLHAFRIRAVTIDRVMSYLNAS
# T2 sequence (looked up) 2: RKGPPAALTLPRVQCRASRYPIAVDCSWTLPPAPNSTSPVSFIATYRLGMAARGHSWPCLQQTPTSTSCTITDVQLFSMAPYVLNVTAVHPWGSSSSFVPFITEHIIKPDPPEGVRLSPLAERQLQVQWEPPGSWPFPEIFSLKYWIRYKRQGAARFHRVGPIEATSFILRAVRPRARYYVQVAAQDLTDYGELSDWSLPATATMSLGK
# Growth hormone variant = target: T3, Growth hormone variant (human, UniProt P01242 27-217)
# T3 construct: Growth hormone variant, human, UniProt P01242; see the manufacturer's catalogue number; also called GH-V; source: bought: R&D Systems (source E. coli)
# T3 sequence (P01242 27-217, change not shown): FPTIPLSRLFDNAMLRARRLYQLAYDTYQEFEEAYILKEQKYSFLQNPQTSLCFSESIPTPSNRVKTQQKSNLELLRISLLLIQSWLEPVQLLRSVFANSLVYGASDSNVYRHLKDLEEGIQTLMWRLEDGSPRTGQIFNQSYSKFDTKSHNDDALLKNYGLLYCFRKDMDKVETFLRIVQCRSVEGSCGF
# Prolactin = target: T4, Prolactin (human, UniProt P01236 29-227)
# T4 construct: Prolactin, human, UniProt P01236; see the manufacturer's catalogue number; also called PRL; source: bought: PeproTech (source E. coli)
# T4 sequence (looked up): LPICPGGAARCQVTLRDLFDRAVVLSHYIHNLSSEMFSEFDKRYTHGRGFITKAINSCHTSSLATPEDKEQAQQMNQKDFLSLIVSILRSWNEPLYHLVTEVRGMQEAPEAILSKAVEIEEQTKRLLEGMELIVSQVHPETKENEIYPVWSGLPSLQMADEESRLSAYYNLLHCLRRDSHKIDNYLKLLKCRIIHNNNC
# Interleukin-10 = target: T5, Interleukin-10 (human, UniProt P22301 19-178)
# T5 construct: Interleukin-10, human, UniProt P22301; see the manufacturer's catalogue number; also called IL-10; source: bought: PeproTech (source E. coli)
# T5 sequence (P22301 19-178): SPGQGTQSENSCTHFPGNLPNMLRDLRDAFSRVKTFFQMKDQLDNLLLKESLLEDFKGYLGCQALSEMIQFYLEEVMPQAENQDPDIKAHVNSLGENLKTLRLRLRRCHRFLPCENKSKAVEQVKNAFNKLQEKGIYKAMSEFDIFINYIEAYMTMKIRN
# [1] = target: T6, Granulocyte-macrophage colony-stimulating factor (human, UniProt P04141 18-144)
# T6 construct: Granulocyte-macrophage colony-stimulating factor, human, UniProt P04141; see the manufacturer's catalogue number; also called GM-CSF; source: bought: PeproTech (source E. coli)
# T6 sequence (P04141 18-144): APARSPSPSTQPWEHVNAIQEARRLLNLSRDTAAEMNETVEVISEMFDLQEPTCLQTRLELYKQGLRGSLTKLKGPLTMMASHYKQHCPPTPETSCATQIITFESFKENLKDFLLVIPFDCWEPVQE
# Interleukin-13 = target: T7, Interleukin-13 (human, UniProt P35225 25-146)
# T7 construct: Interleukin-13, human, UniProt P35225; see the manufacturer's catalogue number; also called IL-13; source: bought: PeproTech (source E. coli)
# T7 sequence (P35225 25-146): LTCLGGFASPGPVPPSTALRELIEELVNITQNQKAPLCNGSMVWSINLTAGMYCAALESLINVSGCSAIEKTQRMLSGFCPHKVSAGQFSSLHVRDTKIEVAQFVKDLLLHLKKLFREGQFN
binder,measurement,setting,value
B1,"Kd1 (heterogeneous ligand model, population 1)",Thrombopoietin,834 pM
same,"Kd2 (heterogeneous ligand model, population 2)",Thrombopoietin,41.2 nM
same,"kd1 (heterogeneous ligand model, population 1)",Thrombopoietin,0.000409 s⁻¹
same,"kd2 (heterogeneous ligand model, population 2)",Thrombopoietin,0.00829 s⁻¹
same,"Kd1 (heterogeneous ligand model, population 1)",Interleukin-35,96.2 nM
same,"Kd2 (heterogeneous ligand model, population 2)",Interleukin-35,255 nM
same,"kd1 (heterogeneous ligand model, population 1)",Interleukin-35,0.000531 s⁻¹
same,"kd2 (heterogeneous ligand model, population 2)",Interleukin-35,0.012 s⁻¹
same,"Kd1 (heterogeneous ligand model, population 1)",Growth hormone variant,1.04 µM
same,"Kd2 (heterogeneous ligand model, population 2)",Growth hormone variant,2.73 µM
same,"kd1 (heterogeneous ligand model, population 1)",Growth hormone variant,0.00177 s⁻¹
same,"kd2 (heterogeneous ligand model, population 2)",Growth hormone variant,0.0181 s⁻¹
same,"Kd1 (heterogeneous ligand model, population 1)",Prolactin,54.6 nM
same,"Kd2 (heterogeneous ligand model, population 2)",Prolactin,906 nM
same,"kd1 (heterogeneous ligand model, population 1)",Prolactin,0.000981 s⁻¹
same,"kd2 (heterogeneous ligand model, population 2)",Prolactin,0.0103 s⁻¹
same,"Kd1 (heterogeneous ligand model, population 1)",Interleukin-10,2.55 µM
same,"Kd2 (heterogeneous ligand model, population 2)",Interleukin-10,2.66 µM
same,"kd1 (heterogeneous ligand model, population 1)",Interleukin-10,0.0106 s⁻¹
same,"kd2 (heterogeneous ligand model, population 2)",Interleukin-10,0.000519 s⁻¹
same,"Kd1 (heterogeneous ligand model, population 1)",[1],245 nM
same,"Kd2 (heterogeneous ligand model, population 2)",[1],450 nM
same,"kd1 (heterogeneous ligand model, population 1)",[1],0.00113 s⁻¹
same,"kd2 (heterogeneous ligand model, population 2)",[1],0.0672 s⁻¹
same,Kd,Interleukin-13,2300 nM
same,koff,Interleukin-13,0.0183 s⁻¹
